From patent publication US20240174985A1, “METHOD FOR PRODUCING OVARIAN SOMATIC CELL-LIKE CELLS, AND METHOD FOR INDUCING DIFFERENTIATION OF PRIMATE PLURIPOTENT STEM CELLS INTO OVARIAN SOMATIC CELL-LIKE CELLS” (Kyoto University, priority 2021, published 2024)

How the values were obtained:
Type in all cases: cell-based
human iPS cells [1] = experiment: Induction of differentiation from human iPS cells into ovarian somatic cell-like cells (FACS of OSR1-tdTomato/NR5A1-EGFP reporters, observation of embryoid bodies); conditions: Activin A 10 ng/ml added between day 2 and day 4
From the text: In order to conveniently observe the expression of genes typical at each developmental stage, a human iPS cell line 1390G3 was genetically modified, and a DNA sequence that emits red fluorescence (tdTomato) with the expression of the OSR1 gene, green fluorescence (EGFP) with the expression of the NR5A1 gene, and red fluorescence (tdTomato) with the expression of the FOXL2 gene was manufactured (see FIG. 1, and after introduction into the chromosome, a portion of “PGKp-Neo (or Puro)-pA” portion was deleted with Cre). An iPS cell line into which two DNA sequences of OSR1 and NR5A1 had been introduced (which may be hereinafter abbreviated as “OTNG”), and an iPS cell line into which two DNA sequences of NR5A1 and FOXL2 had been introduced (which may be hereinafter abbreviated as “NGFT”) were manufactured. In the present test, the OTNG strain was used in most of the experiments. Furthermore, NR5A1 and SF1 are the same gene.
The cells at each stage were analyzed using a flow cytometer (BD FACSAria III).
The ES cells of monkeys and human iPS cells are considered to be similar to EpiLC in a slightly advanced state in terms of differentiation, as compared with mouse ES cells. Therefore, in the examination using monkey or human pluripotent stem cells in the present test, step 0 was omitted and the process was started from step 1. […]

human iPS cells [2] = experiment: Quantitative PCR of marker genes in cells induced from human iPS cells; conditions: Activin A 10 ng/mL added between day 2 and day 4, fibronectin plane culture
From the text: The relative expression level of each marker gene was confirmed using a PCR apparatus (BIO-RAD CFX384 Real-Time System) with the following primers and conditions. In the tables, the PPIA gene and the RPLP0 gene were used as housekeeping genes. The difference in qPCR is a difference from the average value taken as “(PPIA+RPLP0)/2”. In addition, the ERCC gene was used as an absolute control between samples.

[3] = test system: cynomolgus monkey ES cells

B1: Activin A: TGF-β family member produced by multiple cell species during development (protein, UniProt P08476 311-426, looked up)
Inhibin beta A chain: GLECDGKVNICCKKQFFVSFKDIGWNDWIIAPSGYHANYCEGECPSHIAGTSGSSLSFHSTVINHYRMRGHSPFANLKSCCVPTKLRPMSMLYYDDGQNIIKKDIQNMIVEECGCS
proportion of the OSR1− (negative) and SF1+ (positive) cells (human iPS cells [1]; plane culture, FACS day 15): further increased | size of the embryoid bodies (human iPS cells [1]; step 1 plane culture on fibronectin-coated plate): increased over time | expression of GATA3 and HOXB9 (human iPS cells [2]; day 15): decreased | expression of FOXL2 (human iPS cells [2]; day 27): almost equivalent to that in the ovarian somatic cells collected from the living body | expression of OSR1 ([3]; added in step 1: bFGF 50 ng/mL entire period, Activin A 10 ng/ml one day from day 1, FACS days 2, 4, 6): acted toward enhancing the expression of OSR1 | improvement of induction ([3]; addition of Activin A after day 1 of step 1, FACS days 16 and 28): no improvement was observed | improvement of the induction of NR5A1-positive cells ([3]; bFGF 50 ng/ml and Activin A 10 ng/ml (only from day 1) in step 1, days 14 and 21): not recognized
